Results taken from US20240207382A1 (HEALTH RESEARCH, published 2024).

Target: T1, mouse Factor H (FH from mouse, MyBiosource) (mouse, UniProt P06909 19-1234)
T1 construct: Bought protein, coated on microtiter wells; also called mouse FH
Experiment: quantitative ELISA, mouse FH coated, GST-tagged protein (0.03125-2 µM) detected with anti-GST

T1 sequence (P06909 19-1234): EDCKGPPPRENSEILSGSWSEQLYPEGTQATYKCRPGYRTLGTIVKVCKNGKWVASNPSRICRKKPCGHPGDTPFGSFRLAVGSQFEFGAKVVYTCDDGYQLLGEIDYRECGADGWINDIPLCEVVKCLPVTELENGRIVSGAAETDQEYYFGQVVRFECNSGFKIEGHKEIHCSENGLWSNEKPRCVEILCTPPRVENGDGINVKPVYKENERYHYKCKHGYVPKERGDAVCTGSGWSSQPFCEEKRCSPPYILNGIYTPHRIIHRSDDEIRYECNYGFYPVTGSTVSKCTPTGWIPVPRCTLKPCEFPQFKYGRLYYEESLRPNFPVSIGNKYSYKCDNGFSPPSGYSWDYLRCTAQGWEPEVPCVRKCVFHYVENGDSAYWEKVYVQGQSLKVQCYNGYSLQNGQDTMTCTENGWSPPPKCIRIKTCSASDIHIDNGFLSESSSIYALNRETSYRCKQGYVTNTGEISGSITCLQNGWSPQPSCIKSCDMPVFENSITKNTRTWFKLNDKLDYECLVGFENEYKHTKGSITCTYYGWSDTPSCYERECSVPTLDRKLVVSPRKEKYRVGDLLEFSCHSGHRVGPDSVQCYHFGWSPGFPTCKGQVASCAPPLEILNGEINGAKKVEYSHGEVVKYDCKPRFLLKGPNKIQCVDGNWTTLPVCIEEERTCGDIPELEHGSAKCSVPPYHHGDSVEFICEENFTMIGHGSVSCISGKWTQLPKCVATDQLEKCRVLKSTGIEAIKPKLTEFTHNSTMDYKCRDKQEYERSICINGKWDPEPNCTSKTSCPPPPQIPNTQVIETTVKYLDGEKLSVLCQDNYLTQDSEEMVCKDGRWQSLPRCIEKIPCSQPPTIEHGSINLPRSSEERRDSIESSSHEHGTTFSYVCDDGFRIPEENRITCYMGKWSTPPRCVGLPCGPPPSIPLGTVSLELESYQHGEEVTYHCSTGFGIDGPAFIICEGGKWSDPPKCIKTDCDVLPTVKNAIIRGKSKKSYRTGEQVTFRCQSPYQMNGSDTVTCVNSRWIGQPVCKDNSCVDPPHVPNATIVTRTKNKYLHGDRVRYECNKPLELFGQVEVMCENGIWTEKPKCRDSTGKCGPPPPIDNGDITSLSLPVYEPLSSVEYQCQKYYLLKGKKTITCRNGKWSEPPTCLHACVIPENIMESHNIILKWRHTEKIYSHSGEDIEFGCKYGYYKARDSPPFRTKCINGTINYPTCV

B1: GST tagged CspZ (residue 20 to 236 of CspZ from B. burgdorferi strain B31) (other)
chain: DVSRLNQRNINELKIFVEKAKYYSIKLDAIYNECTGAYNDIMTYSEGTFSDQSKVNQAISIFKKDNKIVNKFKELEKIIEEYKPMFLSKLIDDFAIELDQAVDNDVSNARHVADSYKKLRKSVVLAYIESFDVISSKFVDSKFVEASKKFVNKAKEFVEENDLIALECIVKTIGDMVNDREINSRSRYNNFYKKEADFLGAAVELEGAYKAIKQTLL
notes: also called wild type CspZ; CRASP-2; not shown: glutathione-S-transferase (GST) tag encoded by plasmid pGEX-6P1
binding result: binds
